Patent US6713276B2, “Modulation of Aβ levels by β-secretase BACE2” (Scios, Inc., priority 2000, dated 2004)

B1: BACE2 D110A: single D110A BACE2 mutant of a critical aspartate residue, made by site-directed mutagenesis (protein)
chain: ALEPALASPAGAANFLAMVDNLQGDSGRGYYLEMLIGTPPQKLQILVATGSSNFAVAGTPHSYIDTYFDTERSSTYRSKGFDVTVKYTQGSWTGFVGEDLVTIPKGFNTSFLVNIATIFESENFFLPGIKWNGILGLAYATLAKPSSSLETFFDSLVTQANIPNVFSMQMCGAGLPVAGSGTNGGSLVLGGIEPSLYKGDIWYTPIKEEWYYQIEILKLEIGGQSLNLDCREYNADKAIVDSGTTLLRLPQKVFDAVVEAVARASLIPEFSDGFWTGSQLACWTNSETPWSYFPKISIYLRDENSSRSFRITILPQLYIQPMMGAGLNYECYRFGISPSTNALVIGATVMEGFYVIFDRAQKRVGFAASPCAEIAGAAVSEISGPFSTEDVASNCVPAQSLSEPILWIVSYALMSVCGAILLVLIVLLLLPFRCQRRPRDPEVVNDESSLVRHRWK
B2: BACE2: human aspartyl protease, close homolog of BACE (SEQ ID NO: 2), expressed from pcDNA3.1(−)/BACE2 in transfected cells (protein)
chain: MGALARALLLPLLAQWLLRAAPELAPAPFTLPLRVAAATNRVVAPTPGPGTPAERHADGLALALEPALASPAGAANFLAMVDNLQGDSGRGYYLEMLIGTPPQKLQILVDTGSSNFAVAGTPHSYIDTYFDTERSSTYRSKGFDVTVKYTQGSWTGFVGEDLVTIPKGFNTSFLVNIATIFESENFFLPGIKWNGILGLAYATLAKPSSSLETFFDSLVTQANIPNVFSMQMCGAGLPVAGSGTNGGSLVLGGIEPSLYKGDIWYTPIKEEWYYQIEILKLEIGGQSLNLDCREYNADKAIVDSGTTLLRLPQKVFDAVVEAVARASLIPEFSDGFWTGSQLACWTNSETPWSYFPKISIYLRDENSSRSFRITILPQLYIQPMMGAGLNYECYRFGISPSTNALVIGATVMEGFYVIFDRAQKRVGFAASPCAEIAGAAVSEISGPFSTEDVASNCVPAQSLSEPILWIVSYALMSVCGAILLVLIVLLLLPFRCQRRPRDPEVVNDESSLVRHRWK

Assays:
Type in all cases: cell-based, human
[1] = tested on: APP751sw processing in HEK293T cells; test: co-transfection with APP751sw in HEK293T cells, ELISA of conditioned medium
Method: (§1) Expression vectors containing BACE and BACE2 cDNAs were transfected into HEK293T cells in the presence of APP751sw or CT100 (Shoji et al., Science 258: 126-129 [1992]; Lichtenthaler et al., Proc. Natl. Acad. Sci. USA 96: 3053-3058 [1999]). Transfections were performed in 24 well plates using Lipofectamine Plus (Gibco/BRL, Bethesda, Md.) and DNA concentrations were kept constant by including non-specific DNA. Expression plasmids were tested for BACE and BACE2 expression by Western blotting. Cell culture supernatants were collected 48 hours and 72 hours post-transfection, and assayed for α-NTF, β-NTF and Aβ formation. β-NTF measurement was performed as described below. α-NTF was captured like β-NTF but was detected with biotinylated 2H3 (Johnson-Wood et al., Proc. Nati. Acad. Sci. USA 94: 1550-1555 [1997]). Aβ levels were determined by an ELISA using monoclonal antibodies 266 for capture and biotinylated 3D6 for detection (see Johnson-Wood et al., [1997] ibid for antibody epitope description). Aβ42, in contrast, was captured using 21F 12 and detected with biotinylated 3D6. Cell extracts prepared 72 hour post-transfection were separated by SDS-PAGE (Novex) and probed with CT695 (Zymed) for APP and CTFs as well as with an Aβ specific monoclonal antibody WO2 (kindly provided by K. Beyreuther; Ida et al., J. Biol. Chem. 271: 22908-22914 [1996]). Alternatively, co-transfection experiments using APP751sw and BACE or BACE2 were performed in the human neuroblastoma cell line, SK-N-MC, available from the American Type Culture Collection (ATCC).
Given the ability of BACE2 to cleave APP at the β-secretase site in vitro, we investigated the role of BACE2 in HEK293T cells relative to BACE. Variable amounts of BACE2 or BACE expression plasmids were co-transfected with constant amount of DNA encoding APP751sw substrate cDNA. Cell supernatants were collected 48 hours or 72 hours post-transfection and analyzed for α-NTF, β-NTF, total Aβ and Aβ42 as described in Genenral Methodology. Expression of APP751 sw alone led to a significant increase in β-NTF, α-NTF, total Aβ and Aβ42 (FIGS. 2a-d) compared to mock-transfected cells. […] This was most likely due to the fact that overexpressed APP751sw was in excess and was already very efficiently cleaved by endogenous BACE (compare mock versus APP751 sw alone). BACE effects on Aβ formation have been reported to be variable (Vassar et al., [1999] ibid; Sinha et al,[1999] ibid; Hussain et al., [1999] ibid; Yan et al, [1999] ibid; Lin et al,[2000] ibid) and thus it appears that additional factors such as γ-secretase might become limiting.
In an independent experiment, we addressed whether BACE2 competed with the ability of BACE to cleave APP at the β-secretase site. HEK293T cells were co-transfected with constant amounts of APP751sw and BACE, and increasing levels of BACE2. β-NTF and Aβ levels were then measured in culture supernatant (FIG. 3). […] BACE and BACE2 appeared to compete for the substrate and thus the effect on β-NTF might rather be steric. In particular, if BACE2 is a less efficient β-secretase in competing with BACE for substrate, it would reduce the overall β-secretase cleavage efficiency (see also FIG. 4). However, this reduction is insufficient to account for the Aβ reduction with BACE2.

[2] = tested on: CT100 (C-terminal 100 amino acids of APP) processing in HEK293T cells; test: co-transfection with CT100 in HEK293T cells, ELISA, Western blot, pulse-chase; details: for CTFs derived from CT100 (α-like CTF): HEK293 cells, CT100, Western blot and pulse-chase 90 minutes
Method: as §1, with “Alternatively, co-transfection experiments using APP751sw and BACE or BACE2 were performed in the human neuroblastoma cell line, SK-N-MC, available from the American Type Culture Collection (ATCC).” left out
This effect prompted investigation into whether β-secretase cleavage was required for Aβ suppression. The effects of BACE2 on the metabolism of the C-terminal 100 amino acids of APP (CT100), a construct that mimics prior β-secretase cleavage (Shoji et al., Science 258: 126-129 [1992]), was analyzed. […] Cells were readiolabeled with ^35S-methionine/cysteine for 15 minutes after which the medium containing radiolabel was removed and replaced with standard medium. […] Over this 90-minute period, samples were taken and assessed for CTFs by immunoprecipitation. […]

[3] = tested on: APP751sw processing in SK-N-MC cells; test: co-transfection with APP751sw in SK-N-MC neuroblastoma cells, ELISA of conditioned medium; details: co-transfected with APP751sw
Method: as §1, with “Cell extracts prepared 72 hour post-transfection were separated by SDS-PAGE (Novex) and probed with CT695 (Zymed) for APP and CTFs as well as with an Aβ specific monoclonal antibody WO2 (kindly provided by K. Beyreuther; Ida et al., J. Biol. Chem. 271: 22908-22914 [1996]). Alternatively, co-transfection experiments using APP751sw and BACE or BACE2 were performed in the human neuroblastoma cell line, SK-N-MC, available from the American Type Culture Collection (ATCC).” left out
We further assessed the modulatory effect of BACE2 on Aβ formation using a human neuroblastoma cell line, SK-N-MC.

Molecule	Aβ production (total Aβ, Aβ42) with aspartate mutant ([1]; co-transfected with APP751sw or CT100)	β-NTF formation in the presence of co-transfected BACE ([1]; constant APP751sw and BACE)	CTFs derived from CT100 (α-like CTF) [2]	Aβ42 in conditioned medium ([1]; co-transfected with APP751sw)	total Aβ in conditioned medium ([1]; co-transfected with APP751sw)	α-NTF levels in conditioned medium ([1]; co-transfected with APP751sw)	β-NTF levels in conditioned medium ([1]; co-transfected with APP751sw)	total OD of α-NTF plus β-NTF ([1]; co-transfected with APP751sw, APP751sw alone ~2.59) [OD]	Aβ levels in the presence of co-transfected BACE ([1]; constant APP751sw and BACE, increasing BACE2)	Aβ in conditioned medium [3]	β-NTF in conditioned medium [3]	total Aβ and Aβ42 levels in conditioned medium ([2]; HEK293T, co-transfected with CT100)
B1	clearly reversed the suppression of Aβ production	compete as well if not slightly more effectively with BACE to form β-NTF	unable to convert APP CT100 to an α-CTF-like fragment	–	–	–	–	–	–	–	–	–
B2	–	reduced the ability of BACE to form β-NTF in a dose-dependent manner	accumulation of the α-like CTF	striking reduction of total Aβ and Aβ42 to levels found in mock-transfected cells	striking reduction of total Aβ and Aβ42 to levels found in mock-transfected cells	slightly higher levels of α-NTF in conditioned medium from BACE2 versus BACE transfected cells	the effect on β-NTF levels was very similar to that of BACE	~2.5	dramatic dose-dependent reduction in Aβ levels	significant reduction of Aβ	showed β-secretase activity in vivo	dramatic suppression of total Aβ as well as Aβ42 levels
